# Source: paper PMC6061704 (Nucleic Acids Research, 2018)
# T1: N-terminal His-tagged SisHjm (Hjm/Hel308a helicase from Sulfolobus islandicus) (Sulfolobus islandicus, UniProt F0NDL2 1-715)
# T1 sequence (looked up): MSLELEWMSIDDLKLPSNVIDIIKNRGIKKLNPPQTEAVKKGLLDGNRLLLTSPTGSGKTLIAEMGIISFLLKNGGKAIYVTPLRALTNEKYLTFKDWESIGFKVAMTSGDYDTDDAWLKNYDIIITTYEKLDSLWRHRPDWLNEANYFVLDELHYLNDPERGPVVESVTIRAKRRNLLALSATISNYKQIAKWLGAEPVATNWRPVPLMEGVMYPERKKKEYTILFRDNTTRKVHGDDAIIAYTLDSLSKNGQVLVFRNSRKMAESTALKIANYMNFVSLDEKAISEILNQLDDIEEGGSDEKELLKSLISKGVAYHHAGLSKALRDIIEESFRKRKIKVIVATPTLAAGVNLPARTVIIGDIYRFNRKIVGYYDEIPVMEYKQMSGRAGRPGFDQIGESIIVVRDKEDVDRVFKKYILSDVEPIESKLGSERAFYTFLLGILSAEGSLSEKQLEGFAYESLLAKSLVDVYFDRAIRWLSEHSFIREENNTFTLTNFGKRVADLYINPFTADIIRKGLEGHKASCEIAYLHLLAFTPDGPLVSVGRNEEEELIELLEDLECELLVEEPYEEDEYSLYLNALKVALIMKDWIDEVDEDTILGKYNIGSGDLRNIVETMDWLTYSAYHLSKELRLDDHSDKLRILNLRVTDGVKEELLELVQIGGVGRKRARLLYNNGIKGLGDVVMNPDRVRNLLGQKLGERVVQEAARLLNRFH
# Columns and labels:
# SEC = target: the molecule itself; experiment: SEC
# [1] = target: T1, N-terminal His-tagged SisHjm …; experiment: SEC
binder,measurement,setting,value
"SisPINA (PIN domain-containing ATPase from Sulfolobus islandicus), recombinant, without tag (enzyme, UniProt F0NID4 1-505, looked up) MNDLMLDKSALLFGVSKYLEKGIITGNVLIHKSLLAELERESNDGLVSAEIALDEVKKLKDITERILVNFEIVGDDSKKGEANELSREYCLEKGCIIVTADETQKKICDAMGIQYNFLQPLKQGLSFESFFDDETMSLHIKEDTVPRAKKGKPGNWKFVNLSDKPMLSTDVRMIANEIINAVRLIKGSFVEIERRGSLIIQLGNYRVVITRPPLSDGWEITITRPVVRKRLEDYNLDERLIKRLEERAEGIIIAGAPGMGKTTFAQALAEYYMRLGKIVKTIESPRDMHLPPEITQYSKNYAEIGELHDILLLSRPDYTVYDEMRNDEDFKLYVDLRLAGVGMVGVVHATSPIDAIHRFVNRVDIGTIPNILDTIIFINSGNVSKVYTLEMTVKVPAGLKEADLARPVVEIKDLATGNTEYEIYVFGEQTMIVPVNRGITMSNMEFKISKIVNNIIPNATVKYEDGEYVIVIPKEEIGKYNRKLVQRLKRLEKKNNIKIKIKLSD",stoichiometry N,SEC,6
same,stoichiometry N,[1],~1 Hjm monomer per PINA hexamer
